Test results published in patent US20220249561A1 (SHINSHU UNIVERSITY, published 2022).

B1: Ligand 003P (ligand)
chain: DGHHHHHHGSLQDSEVNQEAKPEVKPEVKPETHINLKVSDGSSEIFFKIKKTTPLRRLMEAFAKRQGKEMDSLTFLYDGIEIQADQTPEDLDMEDNDIIEAHREQIGGLEVLFQGPAEAAGLGPSPEQRVEIVPRDLRMKDKFLKHLTGPLYFSPKCSKHFHRLYHNTRDCTIPAYYKRCARLLTRLAVSPVCMEDKQ
B2: Ligand 007P (ligand)
chain: DGHHHHHHGSLQDSEVNQEAKPEVKPEVKPETHINLKVSDGSSEIFFKIKKTTPLRRLMEAFAKRQGKEMDSLTFLYDGIEIQADQTPEDLDMEDNDIIEAHREQIGGLEVLFQGPAAGLGPSPEQRVEIVPRDLRMKDKFLKHLTGPLYFSPKCSKHFHRLYHNTRDCTIPAYYKRCARLLTRLAVSPVCMEDKQ
B3: Ligand 015P (ligand)
chain: DGHHHHHHGSLQDSEVNQEAKPEVKPEVKPETHINLKVSDGSSEIFFKIKKTTPLRRLMEAFAKRQGKEMDSLTFLYDGIEIQADQTPEDLDMEDNDIIEAHREQIGGLEVLFQGPRDLRMKDKFLKHLTGPLYFSPKCSKHFHRLYHNTRDCTIPAYYKRCARLLTRLAVSPVCMEDKQ
B4: Ligand 012P (ligand)
chain: DGHHHHHHGSLQDSEVNQEAKPEVKPEVKPETHINLKVSDGSSEIFFKIKKTTPLRRLMEAFAKRQGKEMDSLTFLYDGIEIQADQTPEDLDMEDNDIIEAHREQIGGLEVLFQGPRVEIVPRDLRMKDKFLKHLTGPLYFSPKCSKHFHRLYHNTRDCTIPAYYKRCARLLTRLAVSPVCMEDKQ
B5: Ligand 009P (ligand)
chain: DGHHHHHHGSLQDSEVNQEAKPEVKPEVKPETHINLKVSDGSSEIFFKIKKTTPLRRLMEAFAKRQGKEMDSLTFLYDGIEIQADQTPEDLDMEDNDIIEAHREQIGGLEVLFQGPGPSPEQRVEIVPRDLRMKDKFLKHLTGPLYFSPKCSKHFHRLYHNTRDCTIPAYYKRCARLLTRLAVSPVCMEDKQ
B6: Ligand 023P (ligand)
chain: DGHHHHHHGSLQDSEVNQEAKPEVKPEVKPETHINLKVSDGSSEIFFKIKKTTPLRRLMEAFAKRQGKEMDSLTFLYDGIEIQADQTPEDLDMEDNDIIEAHREQIGGLEVLFQGPAEAAGLGPSPEQRVEIVPRDLRMKDKFLKHLTGPLYFSPKCSKHFHRLYHNTRDCTIPAYYKRCARLLTRLAVSPVCMED
B7: Ligand 006P (ligand)
chain: DGHHHHHHGSLQDSEVNQEAKPEVKPEVKPETHINLKVSDGSSEIFFKIKKTTPLRRLMEAFAKRQGKEMDSLTFLYDGIEIQADQTPEDLDMEDNDIIEAHREQIGGLEVLFQGPGRAEAAGLGPSPEQRVEIVPRDLRMKDKFLKHLTGPLYFSPKCSKHFHRLYHNTRDCTIPAYYKRCARLLTRLAVSPVCMEDKQ
B8: Ligand 017P (ligand)
chain: DGHHHHHHGSLQDSEVNQEAKPEVKPEVKPETHINLKVSDGSSEIFFKIKKTTPLRRLMEAFAKRQGKEMDSLTFLYDGIEIQADQTPEDLDMEDNDIIEAHREQIGGLEVLFQGPMKDKFLKHLTGPLYFSPKCSKHFHRLYHNTRDCTIPAYYKRCARLLTRLAVSPVCMEDKQ
B9: Ligand 014P (ligand)
chain: DGHHHHHHGSLQDSEVNQEAKPEVKPEVKPETHINLKVSDGSSEIFFKIKKTTPLRRLMEAFAKRQGKEMDSLTFLYDGIEIQADQTPEDLDMEDNDIIEAHREQIGGLEVLFQGPVPRDLRMKDKFLKHLTGPLYFSPKCSKHFHRLYHNTRDCTIPAYYKRCARLLTRLAVSPVCMEDKQ
B10: Ligand 024P (ligand)
chain: DGHHHHHHGSLQDSEVNQEAKPEVKPEVKPETHINLKVSDGSSEIFFKIKKTTPLRRLMEAFAKRQGKEMDSLTFLYDGIEIQADQTPEDLDMEDNDIIEAHREQIGGLEVLFQGPAEAAGLGPSPEQRVEIVPRDLRMKDKFLKHLTGPLYFSPKCSKHFHRLYHNTRDCTIPAYYKRCARLLTRLAVSPVCM
B11: Ligand 005P (ligand)
chain: DGHHHHHHGSLQDSEVNQEAKPEVKPEVKPETHINLKVSDGSSEIFFKIKKTTPLRRLMEAFAKRQGKEMDSLTFLYDGIEIQADQTPEDLDMEDNDIIEAHREQIGGLEVLFQGPALGRAEAAGLGPSPEQRVEIVPRDLRMKDKFLKHLTGPLYFSPKCSKHFHRLYHNTRDCTIPAYYKRCARLLTRLAVSPVCMEDKQ
B12: Ligand 010P (ligand)
chain: DGHHHHHHGSLQDSEVNQEAKPEVKPEVKPETHINLKVSDGSSEIFFKIKKTTPLRRLMEAFAKRQGKEMDSLTFLYDGIEIQADQTPEDLDMEDNDIIEAHREQIGGLEVLFQGPSPEQRVEIVPRDLRMKDKFLKHLTGPLYFSPKCSKHFHRLYHNTRDCTIPAYYKRCARLLTRLAVSPVCMEDKQ
B13: Ligand 011P (ligand)
chain: DGHHHHHHGSLQDSEVNQEAKPEVKPEVKPETHINLKVSDGSSEIFFKIKKTTPLRRLMEAFAKRQGKEMDSLTFLYDGIEIQADQTPEDLDMEDNDIIEAHREQIGGLEVLFQGPEQRVEIVPRDLRMKDKFLKHLTGPLYFSPKCSKHFHRLYHNTRDCTIPAYYKRCARLLTRLAVSPVCMEDKQ
notes: also called Li 011P
B14: Ligand 016P (ligand)
chain: DGHHHHHHGSLQDSEVNQEAKPEVKPEVKPETHINLKVSDGSSEIFFKIKKTTPLRRLMEAFAKRQGKEMDSLTFLYDGIEIQADQTPEDLDMEDNDIIEAHREQIGGLEVLFQGPLRMKDKFLKHLTGPLYFSPKCSKHFHRLYHNTRDCTIPAYYKRCARLLTRLAVSPVCMEDKQ
B15: Ligand 008P (ligand)
chain: DGHHHHHHGSLQDSEVNQEAKPEVKPEVKPETHINLKVSDGSSEIFFKIKKTTPLRRLMEAFAKRQGKEMDSLTFLYDGIEIQADQTPEDLDMEDNDIIEAHREQIGGLEVLFQGPGLGPSPEQRVEIVPRDLRMKDKFLKHLTGPLYFSPKCSKHFHRLYHNTRDCTIPAYYKRCARLLTRLAVSPVCMEDKQ
B16: Ligand 013P (ligand)
chain: DGHHHHHHGSLQDSEVNQEAKPEVKPEVKPETHINLKVSDGSSEIFFKIKKTTPLRRLMEAFAKRQGKEMDSLTFLYDGIEIQADQTPEDLDMEDNDIIEAHREQIGGLEVLFQGPEIVPRDLRMKDKFLKHLTGPLYFSPKCSKHFHRLYHNTRDCTIPAYYKRCARLLTRLAVSPVCMEDKQ

Each binder was assayed against T1, LTK 001P (assay: SPR, Biacore 8K; LTK 001P captured on Protein A chip, ligand as analyte, 6 concentrations from 20 nM).
T1 construct: Expressed in Expi293 cells and captured on a Protein A chip through its Fc

Row | Binder | binding result
1 | B1 | binds
2 | B2 | binds
3 | B3 | binds
4 | B4 | binds
5 | B5 | binds
6 | B6 | binds
7 | B7 | binds
8 | B8 | binds
9 | B9 | binds
10 | B10 | binds
11 | B11 | binds
12 | B12 | binds
13 | B13 | binds
14 | B14 | binds
15 | B15 | binds
16 | B16 | binds

Each binder was assayed against T2, ALK 001P (assay: SPR, Biacore 8K; ALK 001P captured on Protein A chip, ligand as analyte, 6 concentrations from 20 nM).
T2 construct: ALK (1-19) is described only as a region comprising a secretory signal, and no cleavage site is stated; Expressed in Expi293 cells and captured on a Protein A chip through its Fc

Row | Binder | binding result
17 | B1 | binds
18 | B2 | binds
19 | B3 | binds
20 | B4 | binds
21 | B5 | binds
22 | B6 | binds
23 | B7 | binds
24 | B8 | binds
25 | B9 | binds
26 | B10 | binds
27 | B11 | binds
28 | B12 | binds
29 | B13 | binds
30 | B14 | binds
31 | B15 | binds
32 | B16 | binds
